Results on ten molecules are retold here after US20160264960A1 (Chugai, published 2016).

Test [1] addresses T1, soluble human IL-6R (human, UniProt P08887 20-357).
T1 construct: Analyte in the Octet experiments; also called hIL-6R; soluble hIL-6R
T1 sequence: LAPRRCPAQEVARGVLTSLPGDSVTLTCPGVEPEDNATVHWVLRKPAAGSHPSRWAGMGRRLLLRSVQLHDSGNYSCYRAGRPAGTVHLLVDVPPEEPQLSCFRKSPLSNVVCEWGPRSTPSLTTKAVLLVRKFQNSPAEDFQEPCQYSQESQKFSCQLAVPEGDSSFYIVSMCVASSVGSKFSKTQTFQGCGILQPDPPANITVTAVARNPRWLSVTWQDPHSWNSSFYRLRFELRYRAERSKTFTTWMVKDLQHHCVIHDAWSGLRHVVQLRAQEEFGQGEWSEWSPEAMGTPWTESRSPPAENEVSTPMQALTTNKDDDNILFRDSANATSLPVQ
As to the kind of experiment: biolayer interferometry (Octet RED384), antibody on Protein G biosensor, soluble human IL-6R in solution, 120 s association and 120 s dissociation [a]. On the procedure: (§1) The antibody (6RhCEB3(2)_10) obtained in the paragraph (6-2) or an anti-CD3 antibody hCE115HA/L0000 (heavy chain: SEQ ID NO: 42; light chain: SEQ ID NO: 66) was evaluated for its binding activity against soluble human IL-6R and human CD3e (hCD3e) using Octet RED384 (forteBIO). The binding evaluation was conducted using HBS-EP+Buffer (GE Healthcare Japan Corp.) as a buffer.
(§2) After binding of the antibody to Protein G Biosensors (forteBIO), soluble human IL-6R or human CD3e was allowed to interact with the antibody on the biosensor through contact therebetween for 120 seconds, and subsequently contacted with the buffer for 120 seconds to measure the antibody-antigen interaction. Then, the biosensor was regenerated through contact with 10 mmol/L glycine-HCl (pH 1.5). The measurement was conducted at 30° C.
(BLI is a label-free optical method that tracks binding on a fibre tip over time.)

Test [2] has as its target T2, human CD3e (hCD3e) extracellular region with FLAG tag (human, UniProt P07766 22-129). Kind of test: biolayer interferometry (Octet RED384), antibody on Protein G biosensor, human CD3e in solution; antigen concentration not given [a]. Here is the method: as §1, §2
For test [3], the target named is T1, soluble human IL-6R. As to the kind of experiment: biolayer interferometry (Octet RED384), antibody on Protein G biosensor, soluble human IL-6R in solution; antigen concentration not given [b]. Here is the method:
as §1, §2

Test [4] deals with T2, human CD3e (hCD3e) extracellular region …. Kind of test: biolayer interferometry (Octet RED384), antibody on Protein G biosensor, human CD3e in solution, 120 s association and 120 s dissociation [b]. Here is the method: as §1, §2
The target in test [5] is T3, soluble human plexin A1 (human, UniProt Q9UIW2 27-1244).
T3 construct: also called hPlexin A1; human Plexin A1 extracellular region
T3 sequence (Q9UIW2 other isoform, or with tags, fused parts or gaps): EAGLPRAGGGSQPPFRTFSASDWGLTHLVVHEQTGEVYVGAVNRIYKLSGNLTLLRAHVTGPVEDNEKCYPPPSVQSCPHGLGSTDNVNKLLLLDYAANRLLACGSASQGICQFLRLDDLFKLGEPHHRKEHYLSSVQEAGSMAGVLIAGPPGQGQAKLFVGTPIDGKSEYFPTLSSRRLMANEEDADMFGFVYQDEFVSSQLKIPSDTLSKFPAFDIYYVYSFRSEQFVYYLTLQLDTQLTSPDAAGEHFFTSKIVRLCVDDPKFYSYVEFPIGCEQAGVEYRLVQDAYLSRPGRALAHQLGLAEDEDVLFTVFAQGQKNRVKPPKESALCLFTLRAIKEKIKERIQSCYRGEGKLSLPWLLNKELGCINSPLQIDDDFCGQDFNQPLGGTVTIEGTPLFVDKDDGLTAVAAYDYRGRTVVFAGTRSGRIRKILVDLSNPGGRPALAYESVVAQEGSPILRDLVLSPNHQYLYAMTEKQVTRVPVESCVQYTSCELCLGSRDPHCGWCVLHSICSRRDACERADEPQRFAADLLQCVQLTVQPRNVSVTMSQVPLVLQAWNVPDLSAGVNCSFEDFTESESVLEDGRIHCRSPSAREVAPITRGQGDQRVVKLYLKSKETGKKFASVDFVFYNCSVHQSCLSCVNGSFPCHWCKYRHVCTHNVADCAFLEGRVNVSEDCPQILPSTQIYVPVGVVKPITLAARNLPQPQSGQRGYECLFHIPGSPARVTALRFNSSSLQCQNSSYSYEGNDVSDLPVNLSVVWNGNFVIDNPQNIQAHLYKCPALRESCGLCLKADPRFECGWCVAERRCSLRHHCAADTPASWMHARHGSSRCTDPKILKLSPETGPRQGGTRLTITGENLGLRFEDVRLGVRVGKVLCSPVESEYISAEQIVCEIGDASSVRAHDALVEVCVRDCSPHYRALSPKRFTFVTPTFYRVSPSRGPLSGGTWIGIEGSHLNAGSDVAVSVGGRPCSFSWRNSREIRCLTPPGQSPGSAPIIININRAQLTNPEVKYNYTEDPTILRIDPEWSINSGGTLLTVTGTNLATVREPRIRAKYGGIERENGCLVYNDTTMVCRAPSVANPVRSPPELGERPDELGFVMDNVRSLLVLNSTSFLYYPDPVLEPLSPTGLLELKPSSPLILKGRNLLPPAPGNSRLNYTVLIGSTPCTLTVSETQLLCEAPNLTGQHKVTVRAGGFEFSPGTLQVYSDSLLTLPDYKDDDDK
As to the kind of experiment: biolayer interferometry (Octet RED384), antibody on Protein G biosensor, soluble human plexin A1 in solution, 120 s association and 120 s dissociation [b]. Here is the method: (§3) The binding evaluation was conducted using HBS-EP+Buffer (GE Healthcare Japan Corp.) as a buffer.
(§4) After binding of the antibody to Protein G Biosensors (forteBIO), soluble human IL-6R or soluble human plexin A1 was allowed to interact with the antibody on the biosensor through contact therebetween for 120 seconds, and subsequently contacted with the buffer for 120 seconds to measure the antibody-antigen interaction. Then, the biosensor was regenerated through contact with 10 mmol/L glycine-HCl (pH 1.5). The measurement was conducted at 30° C.

Test [6] addresses T1, soluble human IL-6R. As to the kind of experiment: biolayer interferometry (Octet RED384), antibody on Protein G biosensor, soluble human IL-6R in solution; antigen concentration not given [b]. Here is the method:
as §3, §4
The source holds these as a separate data set.

The target in test [7] is T1, soluble human IL-6R. As to the kind of experiment: biolayer interferometry (Octet RED384), antibody on Protein G biosensor, soluble human IL-6R in solution, 120 s association and 120 s dissociation [a]. On the procedure:
as §3, §4
This is another data set of the same source.

Test [8] deals with T3, soluble human plexin A1. As to the kind of experiment: biolayer interferometry (Octet RED384), antibody on Protein G biosensor, soluble human plexin A1 in solution; antigen concentration not given [a]. On the procedure: as §3, §4
For test [9], the target named is T1, soluble human IL-6R. As to the kind of experiment: biolayer interferometry (Octet RED384), antibody on Protein G biosensor, soluble human IL-6R in solution, 120 s association and 120 s dissociation [a]. On the procedure: (§5) Each antibody (6RNH-2_02, 6RNH-2_37, 6RNH-3(2)_32, and 6RNH-2_42) obtained in the paragraph (4-1) was evaluated for its binding activity against soluble human IL-6R using Octet RED384 (forteBIO). The binding evaluation was conducted using HBS-EP+ Buffer (GE Healthcare Japan Corp.) as a buffer.
(§6) After binding of the antibody to Protein G Biosensors (forteBIO), soluble human IL-6R was allowed to interact with the antibody on the biosensor through contact therebetween for 120 seconds, and subsequently contacted with the buffer for 120 seconds to measure the antibody-antigen interaction. Then, the biosensor was regenerated through contact with 10 mmol/L glycine-HCl (pH 1.5). The measurement was conducted at 30° C.
The source holds these as a separate data set.

Test [10] concerns the target T1, soluble human IL-6R. As to the kind of experiment: biolayer interferometry (Octet RED384), antibody on Protein G biosensor, soluble human IL-6R in solution, 120 s association and 120 s dissociation [b]. Here is the method:
as §5, §6

The target of test [11] is T1, soluble human IL-6R. As to the kind of experiment: biolayer interferometry (Octet RED384), antibody on Protein G biosensor, soluble human IL-6R in solution, 120 s association and 120 s dissociation [c]. On the procedure: as §5, §6
The target in test [12] is T1, soluble human IL-6R. Kind of test: biolayer interferometry (Octet RED384), antibody on Protein G biosensor, soluble human IL-6R in solution, 120 s association and 120 s dissociation [a]. Here is the method:
(§7) Each antibody (6RmIAB3(2)_02, 6RmIAB3(2)_06, and 6RmIAB3(2)_16) obtained in the paragraph (6-2) or an anti-mouse IgA antibody mIANMIgL_095 (heavy chain: SEQ ID NO: 41; light chain: SEQ ID NO: 65) was evaluated for its binding activity against soluble human IL-6R and mouse IgA using Octet RED384 (forteBIO). The binding evaluation was conducted using HBS-EP+Buffer (GE Healthcare Japan Corp.) as a buffer.
(§8) After binding of the antibody to Protein G Biosensors (forteBIO), soluble human IL-6R or mouse IgA was allowed to interact with the antibody on the biosensor through contact therebetween for 120 seconds, and subsequently contacted with the buffer for 120 seconds to measure the antibody-antigen interaction. Then, the biosensor was regenerated through contact with 10 mmol/L glycine-HCl (pH 1.5). The measurement was conducted at 30° C.
The source holds these as a separate data set.

The target in test [13] is T4, mouse IgA (mouse, UniProt P01878 114-344).
T4 sequence (looked up): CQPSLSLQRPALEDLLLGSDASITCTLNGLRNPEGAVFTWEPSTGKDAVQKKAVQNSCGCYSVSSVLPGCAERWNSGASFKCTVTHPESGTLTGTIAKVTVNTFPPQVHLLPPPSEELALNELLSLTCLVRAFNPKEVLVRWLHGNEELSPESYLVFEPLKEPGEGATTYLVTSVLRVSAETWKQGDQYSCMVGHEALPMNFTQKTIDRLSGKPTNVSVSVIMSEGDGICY
Kind of test: biolayer interferometry (Octet RED384), antibody on Protein G biosensor, mouse IgA in solution; antigen concentration not given [a]. Here is the method:
as §7, §8

Test [14] deals with T4, mouse IgA. As to the kind of experiment: biolayer interferometry (Octet RED384), antibody on Protein G biosensor, mouse IgA in solution; antigen concentration not given [b]. Here is the method:
as §7, §8

Test [15] addresses T1, soluble human IL-6R. As to the kind of experiment: biolayer interferometry (Octet RED384), antibody on Protein G biosensor, soluble human IL-6R in solution, 120 s association and 120 s dissociation [b]. Here is the method:
as §7, §8
The source holds these as a separate data set.

Test [16] has as its target T1, soluble human IL-6R. Kind of test: biolayer interferometry (Octet RED384), antibody on Protein G biosensor, soluble human IL-6R in solution; antigen concentration not given [d]. Here is the method:
as §7, §8

T2 sequence (P07766 other isoform, or with tags, fused parts or gaps): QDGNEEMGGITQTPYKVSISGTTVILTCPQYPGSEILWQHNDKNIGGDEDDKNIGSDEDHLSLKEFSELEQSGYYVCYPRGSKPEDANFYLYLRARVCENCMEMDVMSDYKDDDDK

B1: 6RhCEB3(2)_10 (antibody, human IgG1, kappa, V domains shown)
VH: QVQLVQSGAEVKKPGSSVKVSCKASGGTFSSYAISWVRQAPGQGLEWMGGIIPIFGTANYAQKFQGRVTITADESTSTAYMELSSLRSEDTAVYYCARDHYDILTGYPDPTYYYYGMDVWGQGTMVTVSS
VL: DIVMTQSPLSLPVTPGEPASISCRSSQSLVHSNRNTYLHWYQQKPGQAPRLLIYKVSNRFSGVPDRFSGSGSGTDFTLKISRVEAEDVGVYYCGQGTQVPYTFGQGTKLEIKR
notes: IgG with the L chain of the humanized anti-CD3 antibody CE115
Take B1: the binding result with soluble human IL-6R [1] was “binds”; in [2], “no binding”.

B2: hCE115HA/L0000 (antibody, human IgG1, kappa, V domains shown)
VH: QVQLVESGGGVVQPGRSLRLSCAASGFTFSNAWMHWVRQAPGKGLEWVAQIKAKSNNYATYYAESVKGRFTISRDDSKNSLYLQMNSLKTEDTAVYYCRYVHYGAYYGVDAWGQGTTVTVSS
VL: B1 VL
notes: also called anti-CD3 antibody hCE115HA/L0000; humanized anti-human CD3 antibody CE115
For B2, the binding result with soluble human IL-6R [3] is “no binding”; in [4], “binds”.

B3: hPANKB2-3#135 (antibody, human IgG1, kappa, V domains shown)
VH: EVQLVQSGAEVKKPGASVKVSCKASGYTFTSYGISWVRQAPGQGLEWMGWISAYNGNTNYAQKLQGRVTMTTDTSTSTAYMELRSLRSDDTAVYYCARGGRGGDAFDIWGQGTMVTVSS
VL: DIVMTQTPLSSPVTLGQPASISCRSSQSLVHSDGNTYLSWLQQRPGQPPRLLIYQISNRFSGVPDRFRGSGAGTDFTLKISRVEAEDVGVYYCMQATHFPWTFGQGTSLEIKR
As to B3, the results for the binding result with soluble human plexin A1 [5] and in the test with soluble human IL-6R [6] were “binds” and “no binding”, respectively.

B4: 6RPAB3_03 (antibody, human IgG1, kappa, V domains shown)
VH: EVQLVESGGGLVQPGGSLRLSCATSGFTFSSYEMNWVRQAPGKGLEWVSYIDRSGSTIYYADSVKGRFTISRDNAKNSLYLQMNSLRAEDTAVYYCAGEWWQGDSWGQGTTVTVSS
VL: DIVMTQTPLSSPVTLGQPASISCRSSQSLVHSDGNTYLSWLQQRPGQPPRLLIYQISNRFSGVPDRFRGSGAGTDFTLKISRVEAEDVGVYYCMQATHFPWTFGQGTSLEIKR
Regarding B4, the values for the binding result with soluble human IL-6R [7] and with soluble human plexin A1 [8] were “binds” and “no binding”, respectively.

B5: 6RNH-2_02 (antibody, human IgG1, kappa, V domains shown)
VH: QVQLVETGGGMVQPGGSLRLSCAASGFMFSTYAMSWVRQASGKGLEWVSLISGTGSVTKYADSVKGRFTISRDNSKNMVYLQMNNLGADDTAVYYCANSDYGDYARFDHWGQGTLVTVSS
VL: DIQMTQSPSSLSASVGDSVTITCQASQDISSYLNWYQQKPGKAPELLIYYGSELHSGVPSRFSGSGSGTDFTFTISSLEAEDAATYYCGQGNRLPYTFGQGTKVEIER
notes: IgG with the PF1 L chain, purified on Protein A
On to B5, for which, in the test with soluble human IL-6R [9], the binding result is recorded as “binds”.

B6: 6RNH-2_37 (antibody, human IgG1, kappa, V domains shown)
VH: QVQLQESGPGLVRPSQTLSLTCTVSGYSITSDHAWSWVRQPPGRGLEWIGYISYSGITTYNPSLKSRVTMLRDTSKNQFSLRLSSVTAADTAVYYCARSLARTTAMDYWGQGTLVTVSS
VL: B5 VL
notes: IgG with the PF1 L chain
For B6, the binding result with soluble human IL-6R [10] is “binds”.

B7: 6RNH-3(2)_32 (antibody, human IgG1, kappa, V domains shown)
VH: QVQLQESGPGLVKPSETLSLTCAVSGYSISHDHAWSWVRQPPGEGLEWIGHISYSGITNYNPHLQDRVTISRDTSKNQFSLKLSSVTAADTAVYYCARFLARITAHDHWGEGTLVTVSS
VL: B5 VL
notes: IgG with the PF1 L chain
Regarding B7, the binding result with soluble human IL-6R [11] is on record as “binds”.

B8: 6RmIAB3(2)_02 (antibody, human IgG1, lambda, V domains shown)
VH: QVQLQESGPGLVKPSGTLSLTCAVSGGSISSSDWWSWVRQPPGKGLEWIGEIYHGGSTNYNPSLKSRVTISVDRSKNQFSLNLSSVTAADTAVYYCARAPRGSYRIDYWGQGTLVTVSS
VL: SYELTQPPSVSVSPGQSASITCSGDKLGDRFVTWYQQKPGQSPVLVMYQDNQRPSGIPERFSGSNSGNTATLTITGTPAMDEADYYCQTWDAGTGVVFGGGTKLTVLS
notes: IgG with the L chain of the anti-mouse IgA antibody mIANMIgL_095; Culture supernatant was recovered; no purification is described
For the molecule B8, the binding result is recorded as “binds” with soluble human IL-6R [12] and “no binding” with mouse IgA [13].

B9: 6RmIAB3(2)_06 (antibody, human IgG1, lambda, V domains shown)
VH: QVQLVQSGAEVKKPGASVKVSCKASGYTFATSGISWVRQAPGQGLEWLGWISPYNSRTNSAQKLQGRVNMTTDTSTNTAYLELRSLTSDDTAVYYCARANGDYRNWFDPWGQGTLVTVSS
VL: B8 VL
notes: IgG with the L chain of the anti-mouse IgA antibody mIANMIgL_095; Culture supernatant was recovered
Consider B9, for which the figures for the binding result with mouse IgA [14] and with soluble human IL-6R [15] were “no binding” and “binds”, respectively.

B10: mIANMIgL_095 (antibody, human IgG1, lambda, V domains shown)
VH: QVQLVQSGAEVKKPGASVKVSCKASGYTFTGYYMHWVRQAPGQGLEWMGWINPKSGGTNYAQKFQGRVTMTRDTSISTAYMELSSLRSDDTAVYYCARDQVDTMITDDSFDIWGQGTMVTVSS
VL: B8 VL
notes: also called anti-mouse IgA antibody mIANMIgL_095
Consider B10, for which the binding result with soluble human IL-6R [16] was “no binding”.
